Results taken from IntAct's records for PubMed 29892012.

B1: Glutaredoxin-3 (Homo sapiens), O76003 (parent)
chain: MAAGAAEAAVAAVEEVGSAGQFEELLRLKAKSLLVVHFWAPWAPQCAQMNEVMAELAKELPQVSFVKLEAEGVPEVSEKYEISSVPTFLFFKNSQKIDRLDGAHAPELTKKVQRHASSGSFLPSANEHLKEDLNLRLKKLTHAAPCMLFMKGTPQEPRCGFSKQMVEILHKHNIQFSSFDIFSDEEVRQGLKAYSSWPTYPQLYVSGELIGGLDIIKELEASEELDTICPKAPKLEERLKVLTNKASVMLFMKGNKQEAKCGFSKQILEILNSTGVEYETFDILEDEEVRQGLKAYSNWPTYPQLYVKGELVGGLDIVKELKENGELLPILRGEN
partner: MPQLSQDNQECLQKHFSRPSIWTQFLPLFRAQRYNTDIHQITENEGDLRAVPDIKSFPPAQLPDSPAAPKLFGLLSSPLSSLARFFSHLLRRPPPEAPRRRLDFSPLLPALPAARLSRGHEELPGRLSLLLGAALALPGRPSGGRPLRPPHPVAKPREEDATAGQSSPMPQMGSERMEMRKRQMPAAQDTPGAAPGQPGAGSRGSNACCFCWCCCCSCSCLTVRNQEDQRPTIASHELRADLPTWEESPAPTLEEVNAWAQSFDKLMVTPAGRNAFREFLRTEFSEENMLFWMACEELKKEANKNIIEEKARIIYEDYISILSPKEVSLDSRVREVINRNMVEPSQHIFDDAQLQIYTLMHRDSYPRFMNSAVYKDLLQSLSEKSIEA
B2: Heterogeneous nuclear ribonucleoprotein F (Homo sapiens), P52597 (parent)
chain: MMLGPEGGEGFVVKLRGLPWSCSVEDVQNFLSDCTIHDGAAGVHFIYTREGRQSGEAFVELGSEDDVKMALKKDRESMGHRYIEVFKSHRTEMDWVLKHSGPNSADSANDGFVRLRGLPFGCTKEEIVQFFSGLEIVPNGITLPVDPEGKITGEAFVQFASQELAEKALGKHKERIGHRYIEVFKSSQEEVRSYSDPPLKFMSVQRPGPYDRPGTARRYIGIVKQAGLERMRPGAYSTGYGGYEEYSGLSDGYGFTTDLFGRDLSYCLSGMYDHRYGDSEFTVQSTTGHCVHMRGLPYKATENDIYNFFSPLNPVRVHIEIGPDGRVTGEADVEFATHEEAVAAMSKDRANMQHRYIELFLNSTTGASNGAYSSQVMQGMGVSAAQATYSGLESQSVSGCYGAGYSGQNSMGGYD
B3: Signal transducing adapter molecule 1 (Homo sapiens), Q92783 (parent)
chain: MPLFATNPFDQDVEKATSEMNTAEDWGLILDICDKVGQSRTGPKDCLRSIMRRVNHKDPHVAMQALTLLGACVSNCGKIFHLEVCSRDFASEVSNVLNKGHPKVCEKLKALMVEWTDEFKNDPQLSLISAMIKNLKEQGVTFPAIGSQAAEQAKASPALVAKDPGTVANKKEEEDLAKAIELSLKEQRQQSTTLSTLYPSTSSLLTNHQHEGRKVRAIYDFEAAEDNELTFKAGEIITVLDDSDPNWWKGETHQGIGLFPSNFVTADLTAEPEMIKTEKKTVQFSDDVQVETIEPEPEPAFIDEDKMDQLLQMLQSTDPSDDQPDLPELLHLEAMCHQMGPLIDEKLEDIDRKHSELSELNVKVMEALSLYTKLMNEDPMYSMYAKLQNQPYYMQSSGVSGSQVYAGPPPSGAYLVAGNAQMSHLQSYSLPPEQLSSLSQAVVPPSANPALPSQQTQAAYPNTMVSSVQGNTYPSQAPVYSPPPAATAAAATADVTLYQNAGPNMPQVPNYNLTSSTLPQPGGSQQPPQPQQPYSQKALL
B4: Transmembrane protein 218 (Homo sapiens), A2RU14 (parent)
chain: MAGTVLGVGAGVFILALLWVAVLLLCVLLSRASGAARFSVIFLFFGAVIITSVLLLFPRAGEFPAPEVEVKIVDDFFIGRYVLLAFLSAIFLGGLFLVLIHYVLEPIYAKPLHSY
partner: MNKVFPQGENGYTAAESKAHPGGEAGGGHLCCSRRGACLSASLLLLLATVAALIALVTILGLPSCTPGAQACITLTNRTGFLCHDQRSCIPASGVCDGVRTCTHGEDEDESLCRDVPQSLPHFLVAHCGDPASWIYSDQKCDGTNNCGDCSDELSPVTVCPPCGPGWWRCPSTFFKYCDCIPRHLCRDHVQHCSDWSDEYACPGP
B5: Ras suppressor protein 1 (Homo sapiens), Q15404 (parent)
chain: MSKSLKKLVEESREKNQPEVDMSDRGISNMLDVNGLFTLSHITQLVLSHNKLTMVPPNIAELKNLEVLNFFNNQIEELPTQISSLQKLKHLNLGMNRLNTLPRGFGSLPALEVLDLTYNNLSENSLPGNFFYLTTLRALYLSDNDFEILPPDIGKLTKLQILSLRDNDLISLPKEIGELTQLKELHIQGNRLTVLPPELGNLDLTGQKQVFKAENNPWVTPIADQFQLGVSHVFEYIRSETYKYLYGRHMQANPEPPKKNNDKSKKISRKPLAAKNR
B6: PDZ and LIM domain protein 1 (Homo sapiens), O00151 (parent)
chain: MTTQQIDLQGPGPWGFRLVGGKDFEQPLAISRVTPGSKAALANLCIGDVITAIDGENTSNMTHLEAQNRIKGCTDNLTLTVARSEHKVWSPLVTEEGKRHPYKMNLASEPQEVLHIGSAHNRSAMPFTASPASSTTARVITNQYNNPAGLYSSENISNFNNALESKTAASGVEANSRPLDHAQPPSSLVIDKESEVYKMLQEKQELNEPPKQSTSFLVLQEILESEEKGDPNKPSGFRSVKAPVTKVAASIGNAQKLPMCDKCGTGIVGVFVKLRDRHRHPECYVCTDCGTNLKQKGHFFVEDQIYCEKHARERVTPPEGYEVVTVFPK
B7: Transmembrane protein 218 (Homo sapiens), A2RU14 (parent)
chain: B4 chain
partner: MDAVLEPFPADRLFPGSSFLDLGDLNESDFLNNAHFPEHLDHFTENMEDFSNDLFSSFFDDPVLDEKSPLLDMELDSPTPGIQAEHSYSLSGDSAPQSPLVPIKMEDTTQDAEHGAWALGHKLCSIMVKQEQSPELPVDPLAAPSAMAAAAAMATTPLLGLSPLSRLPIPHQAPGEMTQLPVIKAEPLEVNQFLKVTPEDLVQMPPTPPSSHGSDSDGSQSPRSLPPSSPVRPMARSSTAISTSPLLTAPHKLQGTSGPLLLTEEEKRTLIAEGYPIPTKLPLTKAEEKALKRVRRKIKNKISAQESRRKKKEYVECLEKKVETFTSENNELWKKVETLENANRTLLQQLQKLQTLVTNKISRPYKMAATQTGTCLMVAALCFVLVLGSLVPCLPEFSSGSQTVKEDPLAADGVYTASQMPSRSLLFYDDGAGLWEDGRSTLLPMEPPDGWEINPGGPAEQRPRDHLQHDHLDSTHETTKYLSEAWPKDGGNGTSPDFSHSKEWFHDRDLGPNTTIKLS
B8: Transmembrane protein 218 (Homo sapiens), A2RU14 (parent)
chain: B4 chain
B9: Glutaredoxin-3 (Homo sapiens), O76003 (parent)
chain: B1 chain
partner: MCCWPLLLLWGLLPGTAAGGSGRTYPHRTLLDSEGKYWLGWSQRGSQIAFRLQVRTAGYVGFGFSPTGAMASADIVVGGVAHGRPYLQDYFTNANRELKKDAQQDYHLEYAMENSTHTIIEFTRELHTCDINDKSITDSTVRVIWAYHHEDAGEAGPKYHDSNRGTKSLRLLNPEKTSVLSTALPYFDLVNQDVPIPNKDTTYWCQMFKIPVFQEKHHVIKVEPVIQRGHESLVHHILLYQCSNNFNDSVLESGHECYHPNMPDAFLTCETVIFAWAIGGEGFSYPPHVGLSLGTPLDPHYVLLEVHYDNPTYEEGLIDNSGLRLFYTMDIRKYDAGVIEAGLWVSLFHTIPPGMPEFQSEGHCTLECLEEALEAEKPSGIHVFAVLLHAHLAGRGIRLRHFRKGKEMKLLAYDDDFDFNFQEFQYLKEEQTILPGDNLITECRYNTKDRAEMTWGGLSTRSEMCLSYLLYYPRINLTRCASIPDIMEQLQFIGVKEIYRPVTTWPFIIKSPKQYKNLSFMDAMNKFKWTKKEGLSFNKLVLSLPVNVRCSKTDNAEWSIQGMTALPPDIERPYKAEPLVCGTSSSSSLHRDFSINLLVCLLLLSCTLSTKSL

Variants of: B1
Details: with rgs20_human RGS20, O76081
MAAGAAEAAVAAVEEVGSAGQFEELLRLKAKSLLVVHFWAPWAPQCAQMNEVMAELAKELPQVSFVKLEAEGVPEVSEKYEISSVPTFLFFKNSQKIDRLDGAHAPELTKKVQRHASSGSFLPSANEHLKEDLNLRLKKLTHAAACMLFMKGTPQEPRCGFSKQMVEILHKHNIQFSSFDIFSDEEVRQGLKAYSSWPTYPQLYVSGELIGGLDIIKELEASEELDTICPKAPKLEERLKVLTNKASVMLFMKGNKQEAKCGFSKQILEILNSTGVEYETFDILEDEEVRQGLKAYSNWPTYPQLYVKGELVGGLDIVKELKENGELLPILRGEN [P145A] was tested, and the “effect of a mutation on the interaction” value was “with no effect”.

Variants of: B2
Details: with hnrl1_human HNRNPUL1, Q9BUJ2
Chain of hnrl1_human HNRNPUL1, Q9BUJ2 (Q9BUJ2 whole entry): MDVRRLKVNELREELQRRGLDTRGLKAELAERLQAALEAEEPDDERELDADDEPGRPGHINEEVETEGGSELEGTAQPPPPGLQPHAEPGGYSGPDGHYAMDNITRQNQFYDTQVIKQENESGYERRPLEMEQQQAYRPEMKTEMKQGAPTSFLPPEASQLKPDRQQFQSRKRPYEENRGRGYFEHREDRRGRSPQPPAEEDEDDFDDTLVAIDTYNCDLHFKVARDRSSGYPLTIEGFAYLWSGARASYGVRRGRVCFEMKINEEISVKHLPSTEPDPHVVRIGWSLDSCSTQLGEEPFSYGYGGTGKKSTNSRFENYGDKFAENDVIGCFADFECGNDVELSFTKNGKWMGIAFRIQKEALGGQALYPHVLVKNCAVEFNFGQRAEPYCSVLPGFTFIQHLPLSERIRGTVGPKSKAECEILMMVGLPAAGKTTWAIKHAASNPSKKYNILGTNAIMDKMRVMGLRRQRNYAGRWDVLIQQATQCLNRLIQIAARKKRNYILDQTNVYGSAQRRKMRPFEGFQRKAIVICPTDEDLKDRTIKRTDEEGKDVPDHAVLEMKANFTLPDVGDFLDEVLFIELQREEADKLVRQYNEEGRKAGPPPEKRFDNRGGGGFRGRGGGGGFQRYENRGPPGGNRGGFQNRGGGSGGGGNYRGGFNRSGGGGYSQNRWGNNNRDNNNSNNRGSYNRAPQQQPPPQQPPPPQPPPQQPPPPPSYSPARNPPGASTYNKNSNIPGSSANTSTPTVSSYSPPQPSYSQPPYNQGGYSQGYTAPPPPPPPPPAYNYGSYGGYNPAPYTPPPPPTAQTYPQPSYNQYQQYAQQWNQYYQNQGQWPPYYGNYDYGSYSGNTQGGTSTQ
In the case of MMLGPEGGEGFVVKLRGLPWSCSVEDVQNFLSDCTIHDGAAGVHFIYAREGRQSGEAFVELGSEDDVKMALKKDRESMGHRYIEVFKSHRTEMDWVLKHSGPNSADSANDGFVRLRGLPFGCTKEEIVQFFSGLEIVPNGITLPVDPEGKITGEAFVQFASQELAEKALGKHKERIGHRYIEVFKSSQEEVRSYSDPPLKFMSVQRPGPYDRPGTARRYIGIVKQAGLERMRPGAYSTGYGGYEEYSGLSDGYGFTTDLFGRDLSYCLSGMYDHRYGDSEFTVQSTTGHCVHMRGLPYKATENDIYNFFSPLNPVRVHIEIGPDGRVTGEADVEFATHEEAVAAMSKDRANMQHRYIELFLNSTTGASNGAYSSQVMQGMGVSAAQATYSGLESQSVSGCYGAGYSGQNSMGGYD [T48A], the “effect of a mutation on the interaction” value is reported as “with no effect”.

Variants of: B3
Details: with hgs_human HGS
For H331L, the “effect of a mutation on the interaction” value was “with no effect”.

Variants of: B4
Details: with lrad1_human LDLRAD1, Q5T700
With P66S the “effect of a mutation on the interaction” value was “with no effect”.

Variants of: B5
Details: with lims1_human LIMS1, P48059
Chain of lims1_human LIMS1, P48059 (P48059 whole entry): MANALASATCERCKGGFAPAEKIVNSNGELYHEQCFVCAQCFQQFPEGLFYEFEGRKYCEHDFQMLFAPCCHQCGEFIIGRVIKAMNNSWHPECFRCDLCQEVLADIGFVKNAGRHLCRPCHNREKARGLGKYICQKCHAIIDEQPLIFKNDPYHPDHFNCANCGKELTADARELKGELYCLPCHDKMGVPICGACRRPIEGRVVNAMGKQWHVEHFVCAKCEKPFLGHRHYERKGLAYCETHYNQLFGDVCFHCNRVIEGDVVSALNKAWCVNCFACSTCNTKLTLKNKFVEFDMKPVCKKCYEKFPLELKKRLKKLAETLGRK
For MSKSLKKLVEESREKNQPEVDMSDRGISNMLDVNGLFTLSHITQLVLSHNKLTMVPLNIAELKNLEVLNFFNNQIEELPTQISSLQKLKHLNLGMNRLNTLPRGFGSLPALEVLDLTYNNLSENSLPGNFFYLTTLRALYLSDNDFEILPPDIGKLTKLQILSLRDNDLISLPKEIGELTQLKELHIQGNRLTVLPPELGNLDLTGQKQVFKAENNPWVTPIADQFQLGVSHVFEYIRSETYKYLYGRHMQANPEPPKKNNDKSKKISRKPLAAKNR [P57L], the “effect of a mutation on the interaction” value was “disrupting interaction strength”.

Variants of: B6
Details: with gfap_human GFAP
For MTTQQIDLQGPGPWGFRLVGGKDFEQPLAISRVTPGSKAALANLCIGDVITAIDGENTSNMTHLEAQNRIKGCTDNLTLTVARSEHKVWSPLVTEEGKRHPYKMNLASEPQEVLHIGSAHNRSAMPFTASPASSTTARVITNQYNNPAGLYSSENISNFNNALESKTAASGVEANSRPLDHAQPPSSLVIDKESEVYKMLQEKQELNEPPKQSTSFLVLQEILESEEKGDPNKPSGFRSVKAPVTKVAVSIGNAQKLPMCDKCGTGIVGVFVKLRDRHRHPECYVCTDCGTNLKQKGHFFVEDQIYCEKHARERVTPPEGYEVVTVFPK [A249V], the “effect of a mutation on the interaction” value was “with no effect”.

Variants of: B6
Details: with actn4_human ACTN4, O43707
Chain of actn4_human ACTN4, O43707 (O43707 whole entry): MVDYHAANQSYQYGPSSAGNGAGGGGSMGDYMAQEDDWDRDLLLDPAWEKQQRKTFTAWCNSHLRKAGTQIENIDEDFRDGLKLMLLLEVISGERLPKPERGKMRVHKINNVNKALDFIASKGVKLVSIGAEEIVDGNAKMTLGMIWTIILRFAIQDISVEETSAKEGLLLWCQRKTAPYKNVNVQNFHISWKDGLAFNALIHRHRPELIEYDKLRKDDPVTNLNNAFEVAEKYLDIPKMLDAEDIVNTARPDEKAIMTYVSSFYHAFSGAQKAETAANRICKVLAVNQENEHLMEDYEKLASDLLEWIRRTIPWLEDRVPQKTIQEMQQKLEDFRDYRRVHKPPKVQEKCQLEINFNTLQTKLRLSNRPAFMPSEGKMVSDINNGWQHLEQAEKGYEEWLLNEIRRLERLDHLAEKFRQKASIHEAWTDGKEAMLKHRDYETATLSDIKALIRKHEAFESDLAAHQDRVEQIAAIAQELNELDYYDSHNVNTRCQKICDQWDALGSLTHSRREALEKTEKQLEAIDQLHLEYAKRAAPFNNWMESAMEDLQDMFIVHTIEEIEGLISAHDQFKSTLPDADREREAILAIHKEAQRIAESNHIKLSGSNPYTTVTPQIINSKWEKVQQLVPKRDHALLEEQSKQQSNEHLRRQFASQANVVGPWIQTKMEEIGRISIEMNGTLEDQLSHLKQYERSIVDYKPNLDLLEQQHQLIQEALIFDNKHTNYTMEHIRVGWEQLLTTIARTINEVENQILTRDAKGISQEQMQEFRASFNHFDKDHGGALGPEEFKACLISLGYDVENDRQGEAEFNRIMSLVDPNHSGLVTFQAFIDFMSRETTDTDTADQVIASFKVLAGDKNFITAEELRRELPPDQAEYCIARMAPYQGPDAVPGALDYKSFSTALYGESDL
For MTTQQIDLQGPGPWGFRLVGGKDFEQPLAISRVTPGSKAALANLCIGDVITAIDGENTSNMTHLEAQNRIKGCTDNLTLTVARSEHKVWSPLVTEEGKRHPYKMNLASEPQEVLHIGSAHNRSAMPFTASPASSTTARVITNQYNNPAGLYSSENISNFNNALESKTAASGVEANSRPLDHAQPPSSLVIDKESEVYKMLQEKQELNEPPKQSTSFLVLQEILESEEKGDPNKPSGFRSVKAPVTKVAVSIGNAQKLPMCDKCGTGIVGVFVKLRDRHRHPECYVCTDCGTNLKQKGHFFVEDQIYCEKHARERVTPPEGYEVVTVFPK [A249V], the “effect of a mutation on the interaction” value was “with no effect”.

Variants of: B7
Details: with cr3l1_human CREB3L1, Q96BA8
P66S was tested, and the “effect of a mutation on the interaction” value was “with no effect”.

Variants of: B8
Details: with pcna_human PCNA
With P66S the “effect of a mutation on the interaction” value was “with no effect”.

Variants of: B9
Details: with moxd1_human MOXD1, Q6UVY6
With MAAGAAEAAVAAVEEVGSAGQFEELLRLKAKSLLVVHFWAPWAPQCAQMNEVMAELAKELPQVSFVKLEAEGVPEVSEKYEISSVPTFLFFKNSQKIDRLDGAHAPELTKKVQRHASSGSFLPSANEHLKEDLNLRLKKLTHAAACMLFMKGTPQEPRCGFSKQMVEILHKHNIQFSSFDIFSDEEVRQGLKAYSSWPTYPQLYVSGELIGGLDIIKELEASEELDTICPKAPKLEERLKVLTNKASVMLFMKGNKQEAKCGFSKQILEILNSTGVEYETFDILEDEEVRQGLKAYSNWPTYPQLYVKGELVGGLDIVKELKENGELLPILRGEN [P145A] the “effect of a mutation on the interaction” value was “with no effect”.
